Numbered stars: 1 amine (or outer) side, 2 acyl side, 3 side chain; on linkers, the order of the positions; unused ones are H or OH. Side chains are listed from the residue outwards. Ends that are not written are not given here. * marks the point of attachment. Decanoyl(10-(4-HOOC-PhO)) = O=C(O)c1ccc(OCCCCCCCCCC(=O)*)cc1; d(γGlu) = O=C(O)[C@@H](CCC(=O)[*:2])N[*:1]; γGlu = O=C(O)[C@H](CCC(=O)[*:2])N[*:1]; C14 diacid = O=C(O)CCCCCCCCCCCCC(=O)*; AEEA = NCCOCCOCC(=O)O
Legend:
human GLP-1 receptor [1] = target: T1, human GLP-1 receptor (human, UniProt P43220 24-463); assay: cell-based or functional assay
human GLP-1 receptor [2] = target: T1, human GLP-1 receptor; assay: SPA displacement assay; IC50 at 2.0% HSA over IC50 at 0.001% HSA
Experimental: (§1) A shift in the binding affinity, $IC50$, is an indication that the peptide in question binds to albumin, and thereby a prediction of a potential protracted pharmacokinetic profile of the peptide in question in animal models.
(§2) 50 ul (micro liter) HSA ("high albumin" experiment containing 2% HSA), or buffer ("low albumin" experiment containing 0.001% HSA), was added to Optiplate, and 25 ul of test compounds were added. 5-10 ug membrane protein/sample was added (50 ul) corresponding to 0.1-0.2 mg protein/ml (to be preferably optimised for each membrane preparation). SPA-particles (Wheatgerm agglutinin SPA beads, Perkin Elmer, #RPNQ0001) were added in an amount of 0.5 mg/well (50 ul). […] The plates were sealed with PlateSealer and incubated for 120 minutes at 30° C. while shaking. The plates were centrifuged (1500 rpm, 10 min) and counted in Topcounter.

human GLP-1 receptor [3] = target: T1, human GLP-1 receptor; assay: SPA, displacement of 125I-GLP-1(7-36)NH2 from hGLP-1R BHK membranes, high HSA (2.0%)
Experimental: as §1, §2

human GLP-1 receptor [4] = target: T1, human GLP-1 receptor; assay: SPA, displacement of 125I-GLP-1(7-36)NH2 from hGLP-1R BHK membranes, low HSA (0.001%)
Experimental: as §1, §2

Row | Binder | EC50/pM (in vitro potency, cAMP formation, AlphaScreen) (human GLP-1 receptor [1]) | Ratio [(IC50/nM) high HSA]/[(IC50/nM) low HSA] (human GLP-1 receptor [2]) | IC50 (human GLP-1 receptor [3]) | IC50 (human GLP-1 receptor [4])
1 | HAEGTFTSDVSSYLEEQAVRK([AEEA-AEEA-γGlu-Decanoyl(10-(4-HOOC-PhO))])FIAWLVRGRK([AEEA-AEEA-γGlu-Decanoyl(10-(4-HOOC-PhO))]) | 143 pM | 217 | 33 nM | 0.15 nM
2 | HAEGTFTSDVSSYLEK([AEEA-AEEA-γGlu-C14 diacid])QAVRK([AEEA-AEEA-γGlu-C14 diacid])FIEWLVQGRG (also called 11) | 81 pM | 926 | 213 nM | 0.23 nM
3 | HAEGTFTSDVSSYLEK([γGlu-AEEA-AEEA-C14 diacid])QAVRK([γGlu-AEEA-AEEA-C14 diacid])FIEWLVQGRG (also called 20) | 67 pM | 1750 | 333 nM | 0.19 nM
4 | HAEGTFTSDVSSYLEEQK([AEEA-AEEA-γGlu-C14 diacid])VRK([AEEA-AEEA-γGlu-C14 diacid])FIAHLVRGRG (also called 24) | 70 pM | 18 | 50 nM | 2.74 nM
5 | HAEGTFTSDVSSYLEEQK([AEEA-AEEA-γGlu-Decanoyl(10-(4-HOOC-PhO))])VRK([AEEA-AEEA-γGlu-Decanoyl(10-(4-HOOC-PhO))])FIAWLVRGRG (also called 28) | 68 pM | 144 | 29 nM | 0.2 nM
6 | HAEGTFTSDVSSYLEGQAVRK([AEEA-AEEA-γGlu-C14 diacid])FIAHLVQGRK([AEEA-AEEA-γGlu-C14 diacid]) (also called 16) | 21 pM | 127 | 25 nM | 0.2 nM
7 | HAEGTFTSDVSSYLEEEAVRK([AEEA-AEEA-γGlu-C14 diacid])FIAHLVQGRK([AEEA-AEEA-γGlu-C14 diacid]) (also called 17) | 17 pM | 387 | 174 nM | 0.45 nM
8 | HAEGTFTSDVSSYLEEQAARK([AEEA-AEEA-γGlu-Decanoyl(10-(4-HOOC-PhO))])FIAWLVRGRK([AEEA-AEEA-γGlu-Decanoyl(10-(4-HOOC-PhO))]) | 26 pM | 219 | 42 nM | 0.19 nM
9 | HAEGTFTSDVSSYLEGQAVRK([AEEA-AEEA-γGlu-γGlu-Decanoyl(10-(4-HOOC-PhO))])FIAWLVQGK([AEEA-AEEA-γGlu-γGlu-Decanoyl(10-(4-HOOC-PhO))])G (also called 23) | 140 pM | 47 | 40 nM | 0.85 nM
10 | HAEGTFTSDVSSYLEGQAVRK([γGlu-AEEA-AEEA-d(γGlu)-Decanoyl(10-(4-HOOC-PhO))])FIAWLVQGK([γGlu-AEEA-AEEA-d(γGlu)-Decanoyl(10-(4-HOOC-PhO))])G (also called 26) | 200 pM | 143 | 54 nM | 0.38 nM
11 | HAEGTFTSDVSSYLEGQAARK([AEEA-AEEA-γGlu-Decanoyl(10-(4-HOOC-PhO))])FIEWLVRGK([AEEA-AEEA-γGlu-Decanoyl(10-(4-HOOC-PhO))])GE | 96 pM | 246 | 123 nM | 0.5 nM
12 | HAEGTFTSDVSSYLEGQAVRK([AEEA-AEEA-γGlu-Decanoyl(10-(4-HOOC-PhO))])FIEWLVRGK([AEEA-AEEA-γGlu-Decanoyl(10-(4-HOOC-PhO))])GQ (also called 12) | 41 pM | 453 | 72 nM | 0.16 nM
13 | HAEGTFTSDVSSYLEGQAAHK([AEEA-AEEA-γGlu-Decanoyl(10-(4-HOOC-PhO))])FIEWLVRGK([AEEA-AEEA-γGlu-Decanoyl(10-(4-HOOC-PhO))])GE (also called 10) | 214 pM | 70 | 452 nM | 6.49 nM
14 | HAEGTFTSDVSSYLEGQAVRK([AEEA-AEEA-γGlu-Decanoyl(10-(4-HOOC-PhO))])FIEWLVQGK([AEEA-AEEA-γGlu-Decanoyl(10-(4-HOOC-PhO))])GE (also called 13) | 79 pM | 804 | 201 nM | 0.25 nM
15 | HAEGTFTSDVSSYLEEQAAHK([AEEA-AEEA-γGlu-Decanoyl(10-(4-HOOC-PhO))])FIEWLVRGK([AEEA-AEEA-γGlu-Decanoyl(10-(4-HOOC-PhO))])GE (also called 21) | 52 pM | 163 | 256 nM | 1.57 nM
16 | HAEGTFTSDVSSYLEEQK([γGlu-AEEA-AEEA-C14 diacid])ARK([γGlu-AEEA-AEEA-C14 diacid])FIAHLVG (also called 22) | 1180 pM | 87 | 812 nM | 9.31 nM
17 | HAEGTFTSDVSSYLEK([γGlu-AEEA-AEEA-C14 diacid])QAARK([γGlu-AEEA-AEEA-C14 diacid])FIAHLVG (also called 14) | 42 pM | 306 | 443 nM | 1.45 nM
18 | HAEGTFTSDVSSYLEEQK([AEEA-AEEA-γGlu-C14 diacid])VRK([AEEA-AEEA-γGlu-C14 diacid])FIAWLVG (also called 27) | 835 pM | 97 | > 1000 nM | 10.3 nM
19 | HAEGTFTSDVSSYLEEQK([γGlu-AEEA-AEEA-C14 diacid])VRK([γGlu-AEEA-AEEA-C14 diacid])FIAWLVG (also called 30) | 3000 pM | 134 | > 1000 nM | 7.44 nM

— patent US9266940 (Novo Nordisk, dated 2016)
